Each block holds one molecule with its values, some of them ahead of it. Non-standard residues stand in square brackets, D forms with d. pS = N[C@@H](COP(=O)(O)O)C(=O)O
Key:
[1] = target: IN-box (C-terminal part of INCENP) IN-box, 790-856; test: mass photometry at 10 nM complex; conditions: reference: [Aurora B/IN-box]all-P, as purified; sites T248,S849,S850
[2] = target: T1, Aurora B (59-361 aa) from X. laevis, phosphorylated at Thr248, of the [Aurora B/IN-box]^IN-ΔC construct (X. laevis, UniProt Q6DE08 59-361, phosphothreonine at 248); test: co-purification; purified complex after ligation with the synthetic peptide: Superdex S200 16/60, then Ni column by the 6xHis of the ligated IN-box, eluted with imidazole; conditions: both partners purified
T1 construct: Aurora B kinase, Xenopus laevis, residues 59-361; also called Aurora B of [Aurora B/IN-box]^loop-P; not shown: 6xHis, N-terminal, cleaved; GB1 domain of streptococcal protein G, N-terminal, cleaved

[3] = target: T2, Aurora B (59-361 aa) from X. laevis, dephosphorylated, of the [Aurora B/IN-box]^IN-ΔC construct (X. laevis, UniProt Q6DE08 59-361); test: as above; conditions: both partners purified
T2 construct: Aurora B kinase, Xenopus laevis, residues 59-361; Thr248 not phosphorylated; also called Aurora B of [Aurora B/IN-box]^IN-P; not shown: 6xHis, N-terminal, cleaved; GB1 domain of streptococcal protein G, N-terminal, cleaved

other: complex molecular weight [1]: same; reference ~44
Molecule: Aurora B 60-361 [Aurora B/IN-box]no-P, λ-phosphatase treated

binding result [2]: binds
B1: Semisynthetic IN-box (790-858, Phe845Cys) with unphosphorylated TSS motif and C-terminal 6xHis, as in [Aurora B/IN-box]^loop-P (domain or fragment, X. laevis)
chain: DESQPRKPIPAWASGNLLTQAIRQQYYKPIDVDRMYGTIDSPKLEELFNKSKPRYCKRTSSAVWHSPPL
notes: INCENP, Xenopus laevis, IN-box residues 790-844; synthetic peptide, IN-box residues 845-858 of X. laevis INCENP with Cys in place of Phe845 (scar of the ligation); also called IN-box of [Aurora B/IN-box]^loop-P; IN-box^Phe845Cys; source: IN-box^ΔC (E. coli, purified, C-terminal thioester) ligated with a synthetic peptide; purified (Superdex S200, Ni column); not shown: 6xHis, C-terminal, kept

binding result [3]: binds
B2: Semisynthetic IN-box (790-858, Phe845Cys) phosphorylated at Ser849 and Ser850 with C-terminal 6xHis, as in [Aurora B/IN-box]^IN-P (domain or fragment, X. laevis)
chain: DESQPRKPIPAWASGNLLTQAIRQQYYKPIDVDRMYGTIDSPKLEELFNKSKPRYCKRT[pS][pS]AVWHSPPL-{H2N-H2N-H2N-H2N-H2N-H2N}
notes: INCENP, Xenopus laevis, IN-box residues 790-844; synthetic peptide, IN-box residues 845-858 of X. laevis INCENP with Cys in place of Phe845 (scar of the ligation), both serines of the TSS motif phosphorylated; also called IN-box of [Aurora B/IN-box]^IN-P; IN-box^Phe845Cys; source: IN-box^ΔC (E. coli, purified, C-terminal thioester) ligated with a synthetic phosphopeptide; purified (Superdex S200, …)
